According to patent US20090214535A1:

Target: monkey Mpl (on BaF3-monkey Mpl cells) (monkey)

EC50 (read off the curve) [B) BaF-monkey Mpl]: 0.01 nM
Substance: hTPO (ligand)
